The assay deals with T1, WNV E protein on virions of WNV New York strain (lineage I) (West Nile virus (New York strain), UniProt Q9Q6P4 291-791).
T1 sequence (looked up): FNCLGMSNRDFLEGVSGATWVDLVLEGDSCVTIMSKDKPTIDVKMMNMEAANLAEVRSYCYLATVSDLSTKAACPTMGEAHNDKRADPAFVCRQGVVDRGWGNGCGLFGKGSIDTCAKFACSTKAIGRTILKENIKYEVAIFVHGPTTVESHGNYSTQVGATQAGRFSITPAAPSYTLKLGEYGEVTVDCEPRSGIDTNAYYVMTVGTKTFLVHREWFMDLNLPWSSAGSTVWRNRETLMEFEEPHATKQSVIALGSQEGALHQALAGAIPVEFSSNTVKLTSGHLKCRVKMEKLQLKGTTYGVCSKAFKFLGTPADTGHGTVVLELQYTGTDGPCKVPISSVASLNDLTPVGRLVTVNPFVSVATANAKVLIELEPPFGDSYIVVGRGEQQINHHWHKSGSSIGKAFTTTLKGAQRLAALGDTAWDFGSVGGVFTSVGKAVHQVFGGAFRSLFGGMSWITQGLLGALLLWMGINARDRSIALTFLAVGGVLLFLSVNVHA
The experiment in a line: cell-based or functional assay.

B1: WNV E16 (monoclonal antibody produced by hybridoma clone E16 C4 E4, ATCC PTA-6050) (antibody, V domains shown)
VH: QVQLQQSGSELMKPGASVQISCKATGYTFSDYWIEWVKQRPGHGLEWIGDILCGTGRTRYNEKLKAMATFTADTSSNTAFMQLSSLTSEDSAVYYCARSASYGDYADYWGHGTTLTVSS
VL: DIVMTQSHKFMSTSVGDRVSITCKASQDVSTAVAWYQQKPGQSPKLLISWASTRHTGVPDRFTGSGSGTDYTLTISSVQAEDLALYYCQQHYTTPLTFGAGTKLELK
With B1, the “PRNT assay, potency against human γ-globulin preparation” value is around 1000 fold.

The record behind these values is patent publication US20060067940A1 (WASHINGTON UNIVERSITY, published 2006).
